Values belong to the binder of their own block, whether it stands above or below them.
Columns and labels:
[1] = target: T1, human AXL expressed on the cell surface of tumor cell lines (human, UniProt P30530 26-894); assay: FACS on NCI-H292 cells, apparent Kd, human Fc format
T1 construct: whole, on cells; also called cell surface-expressed AXL; cell-based AXL
T1 sequence (looked up): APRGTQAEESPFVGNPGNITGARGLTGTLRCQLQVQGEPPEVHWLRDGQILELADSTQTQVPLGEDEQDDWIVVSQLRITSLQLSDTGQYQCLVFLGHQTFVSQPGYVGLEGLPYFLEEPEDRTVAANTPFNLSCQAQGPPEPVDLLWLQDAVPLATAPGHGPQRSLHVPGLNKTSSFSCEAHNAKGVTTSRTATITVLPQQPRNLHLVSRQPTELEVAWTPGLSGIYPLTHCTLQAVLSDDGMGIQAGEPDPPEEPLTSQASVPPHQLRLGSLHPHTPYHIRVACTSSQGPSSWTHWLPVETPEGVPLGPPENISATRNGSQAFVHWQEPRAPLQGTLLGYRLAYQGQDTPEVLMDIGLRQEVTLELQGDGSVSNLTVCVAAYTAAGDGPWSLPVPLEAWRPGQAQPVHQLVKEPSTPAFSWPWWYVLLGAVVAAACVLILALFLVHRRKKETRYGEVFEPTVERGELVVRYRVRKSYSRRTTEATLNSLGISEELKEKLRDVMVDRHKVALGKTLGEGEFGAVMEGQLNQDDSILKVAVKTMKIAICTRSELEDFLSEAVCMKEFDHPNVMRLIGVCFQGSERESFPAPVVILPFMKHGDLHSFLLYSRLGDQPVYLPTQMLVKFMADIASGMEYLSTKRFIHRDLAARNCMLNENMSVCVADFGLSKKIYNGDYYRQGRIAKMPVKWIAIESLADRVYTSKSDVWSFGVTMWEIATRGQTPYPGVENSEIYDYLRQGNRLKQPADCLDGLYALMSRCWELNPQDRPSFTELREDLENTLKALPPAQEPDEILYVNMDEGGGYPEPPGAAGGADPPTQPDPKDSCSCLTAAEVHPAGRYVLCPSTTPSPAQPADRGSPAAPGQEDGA
Protocol: (§1) FACS binding assay. Adherent cells were dissociated with non-enzymatic Sigma Cell Dissociation Solution (Cat. No. C5789). Cells suspensions were added to polypropylene, V-bottom 96-well plates and incubated for 2 hours on ice with primary antibodies at concentrations ranging from 100 nM to 0.001 nM or at a single dose of 100 nM (for the non-specific control). After incubation and washes, cells were incubated with fluorescently labeled secondary antibody (Alexa Fluor® 488 anti-human IgG from Jackson Cat. No 709-546-098) for 1 hour on ice, then washed. Cell viability was determined using Fixable viability dye 450 (20 min on ice). Stained cells were fixed in 1% formaldehyde at 4° C. and stored at 4° C. until acquisition which was performed the next day.
(§2) Binding of recombinant chimeric Abs to three cell lines was assessed by FACS as described above. The apparent Bmax and Kd determination is shown below in Table 14.

[2] = target: T2, recombinant human AXL extracellular domain, C-terminally His8-tagged (rhAXL-ECD) (human, UniProt P30530 26-451); assay: ELISA on coated AXL ECD (100 ng/well), VHH-Fc, HRP-protein A
T2 construct: Made in CHO cells; also called (rh)AXL-ECD His8; human AXL ECD
T2 sequence: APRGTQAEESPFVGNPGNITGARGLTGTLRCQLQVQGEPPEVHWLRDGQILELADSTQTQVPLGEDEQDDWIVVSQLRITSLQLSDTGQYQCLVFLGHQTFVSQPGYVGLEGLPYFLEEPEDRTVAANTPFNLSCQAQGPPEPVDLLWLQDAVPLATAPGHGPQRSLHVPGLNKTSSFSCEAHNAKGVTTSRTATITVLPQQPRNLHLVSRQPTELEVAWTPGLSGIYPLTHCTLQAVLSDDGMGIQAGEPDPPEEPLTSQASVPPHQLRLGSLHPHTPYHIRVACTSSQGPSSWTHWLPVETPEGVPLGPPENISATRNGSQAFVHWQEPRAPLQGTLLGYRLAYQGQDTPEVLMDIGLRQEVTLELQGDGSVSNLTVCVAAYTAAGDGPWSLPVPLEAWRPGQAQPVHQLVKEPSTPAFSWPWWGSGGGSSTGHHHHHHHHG
Protocol: ELISA. ELISAs against human, cyno and mouse AXL ECDs were conducted by immobilizing 100 ng of each protein in wells of Nunc MaxiSorp microplates overnight. Human AXL (aa 1-451) and cyno AXL (aa 1-449) were produced recombinantly as described in Example 10. Mouse AXL was purchased from Sino (cat. 51026-M08H). The next day, plates were blocked with 5% (w/v) dried milk in PBS. Murine mAbs (either hybridoma- or recombinantly-produced) or VHH-Fcs were diluted in PBS containing 1% BSA and 0.1% Tween-20 and added to wells for 2 hours at room temperature. Wells were washed 5× with PBS containing 0.1% Tween-20, then HRP-labeled protein A (diluted 1:1000 in PBS containing 1% BSA and 0.1% Tween™-20) was added to wells for 1 hour at room temperature. Wells were washed again 5× with PBS/0.1% Tween-20 and developed using TMB substrate. Absorbance was measured at 450 nm. As a positive control for mouse AXL binding, a commercial anti-mouse AXL mAb (clone 175128, R&D Systems MAB8541, rat IgG2A) was used and detected with donkey […] secondary antibody.

[3] = target: T1, human AXL expressed on the cell surface …; assay: FACS on NCI-H292 cells, apparent Kd
Protocol: as §1, §2

[4] = target: T1, human AXL expressed on the cell surface …; assay: FACS on SKOV3 cells, apparent Kd
Protocol: as §1, §2

[5] = target: T2, recombinant human AXL extracellular …; assay: SPR Biacore T200, mAb captured on anti-Fc, AXL ECD flowed (footnote b printed in a row of footnote a)
Protocol: Surface plasmon resonance. For murine mAbs, binding to human and cynomolgus AXL ECD was assessed using a Biacore T200 instrument. Briefly, either anti-mouse or anti-human Fc antibody was immobilized on a research-grade CM5 series S sensor chip using amine coupling in acetate buffer. Murine or recombinant chimeric murine-human mAbs (mouse VH/VL; human constant regions) were captured, then recombinant human or cyno AXL ECD was flowed over the surface at different concentration ranges (0.1-500 nM) depending on the antibody. The running buffer was PBS/Tween-20 and the flow rate 100 uL/min. All binding studies were performed at 25° C. Surfaces were regenerated using 10 mM glycine, pH 1.5.

Kd [1]: 105 pM
EC50 [2]: 1000 pM
B1: NRC-sdAb001-Fc (VHH-human IgG1 Fc fusion) (Fc fusion)
chain: QVKLEESGGGLVQAGGSLRLSCTASASISSFDIMGWYRQAPGKQRELVAAITTLDIANYRDSVKGRFTISRDNAKNTVYLQMDSLKPEDTARYHCAAFQSDQNYWGQGTQVTVSS
notes: VHH fused N-terminally to human IgG1 Fc, made in HEK293 cells; also called NRC-sdAb0001-Fc; NRC-sdAb001-hIgG1; not shown: human IgG1 Fc

Kd [3]: 70.8 pM
Kd [4]: 60.8 pM
koff [5]: 0.00059 s⁻¹
B2: hFC-F107-10G1 (antibody, human IgG1, kappa, V domains shown)
VH: EVNLVESGGGVVKPGASLKLSCEASGFTFSNYGMSWVRQTSDKRLEWVASISGGGGRTYYLDNVKGRFIISRENAKNTLYLQMSSLKSEDTALFYCARGARASYFAMDYWGQGSSVTVSS
VL: VIVMTQSHKFMSTSVGDRVSITCKASQDVTTAVAWYQQKPGQSPKLLIYWASTRHTGVPDRFTGSGSGTDYSLTISNVQTEDLAFYYCQQHFTTPLTFGAGTKLELKR
notes: Chimeric mAb, human IgG1 / human kappa constant regions; also called mAb F107-10G1

From patent publication US20240076389A1 (NATIONAL RESEARCH COUNCIL OF CANADA, published 2024)
